According to the supplement of paper PMC9170038:

Tested on: MS2 coat protein
Assay: apparent KD of MS2 coat protein; designed switch direction (-1 OFF switch, 1 ON switch): -1; higher = weaker reporter binding
Summary of the method: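 Designed RNA switches with common flanks were transcribed on Illumina chips by stalled E. coli RNA polymerase and titrated with SNAP-549-labelled MS2 coat protein, from 0.7 or 1.5 nM doubling to 3 µM, in Tris-HCl pH 7.5 buffer with KCl, MgCl2, BSA, DTT, tRNA and Tween-20. Steps lasted 0.8–1.5 h (lowest) to 10–20 min (highest). Titrations ran without input, with 200 uM small-molecule ligand, or with an oligonucleotide input. Normalised cluster fluorescence was curve-fitted, and apparent KD is the per-design median over clusters.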

[1] = input ligand: microRNA oligo, concentration not stated
[2] = Eterna round: R95, input ligand: FMN 200 uM
[3] = Eterna round: R95, input ligand: microRNA oligo, concentration not stated
[4] = Eterna round: R95, input ligand: none

Sequence | apparent KD of MS2 coat protein (input ligand: FMN 200 uM) [nM] | apparent KD of MS2 coat protein [1] [nM] | apparent KD of MS2 coat protein (input ligand: none) [nM] | apparent KD of MS2 coat protein [2] [nM] | apparent KD of MS2 coat protein [3] [nM] | apparent KD of MS2 coat protein [4] [nM]
AACAGAAAAGAAAUAAAUAACAUGAGGAUCACCCAUGUCAACGGGUAAGAGCUCAACGAGCUGCGAGUCUUACUCAA [Enreaerre] (Eterna round: R96, puzzle: Sensor v2, turn-off variant) | 25.7 | 17.5 | 24.7 | – | – | –
AACAGGUCAGGAUAUACAUGAGGAUCACCCAUGUAGACUUCUAGUCUACCGAGGCUGUGUAGAAGGGACCUGAA [Exclusion 3 (MOD4 of #98 Marzena11)] (Eterna round: R97, puzzle: Exclusion 3) | 175 | – | 43.3 | – | – | –
AACAGUCCUUAGGAUAUGUGCGAUUAAUAUCGUGCAGAAGGAUGGACAUGAGGAUCACCCAUGUAAAUACUACC [Omei Ex6 A17] (Eterna round: R97, puzzle: Exclusion 6) | 62.6 | – | 20.9 | – | – | –
AACCGGCGGACCGAAGCUUUUUGCUUGUUUUAUACUACAACAUGAGGAUCACCCAUGUGGUGGUGGUCCGUUGUAGA [Bitein] (puzzle: Sensor v3, turn-off variant 2) | – | – | – | 47.9 | 16.1 | 52.9
AACCUAAGGCAAAGCUUUAGGUGUACAUGAGGAUCACCCAUGUAGGAUAUGGUAGGCAAAGCUUACCAGAAGGACAUUAUGAUA [Mat - Exclusion NG 3 - Mod of JL - D53] (Eterna round: R96, puzzle: Exclusion NG 3) | 82.1 | 27.5 | 55.2 | – | – | –
AACCUGAGGCUUUGCUUUAGGUUUACAUGAGGAUCACCCAUGUAGGAUAUGGUAGGCUUUGCUUACCAGAAGGACAUGAAAAUU [Mat - Exclusion NG 3 - Mod of JL - D28] (Eterna round: R96, puzzle: Exclusion NG 3) | 225 | 40.4 | 44.2 | – | – | –
AACGCUAAAGGAUAUACAUGAGGAUCACCCAUGUUGAGGAAGGUUAGAUGAGGAGUAAGUAGAAGGUUAGACGA [JR_Exclu3_Sub090] (puzzle: Exclusion 3) | – | – | – | – | 23.7 | –
AACUACUCUGUGAGGAUAUGCGAUCGUUGAUCAAAGCAGAAGGCACAUGAGGAUCACCCAUGUUCCUACGAGGG [Edatbiat] (puzzle: Brourd's mod of Exclusion 4) | – | – | – | – | 30.2 | –
AACUCACAUGAGGAUCACCCAUGUGAGGAUAUGGAUUCGCUGGCCGUAGCCAGUGGAUCCAGAAGGCGCAUGAU [JL-ex1-4.10] (Eterna round: R97, puzzle: Exclusion 1) | 23.1 | – | 21.2 | – | – | –
AACUUCUGAGGAUAUACAUAGAUUUACAUGAGGAUCACCCAUGUUCCUCUUUGUAUAAAUGUAGAAGGCAGAAGAA [Mat - Exclusion 5 - JL Mod - D72] (Eterna round: R97, puzzle: Exclusion 5) | 349 | – | 203 | – | – | –
AAGAAAAGGAGAGGAUAUGCGAAAGGAAGUGUAGCAGAAGGCUUCGGGUAAGUCCACAUGAGGAUCACCCAUGUUAAUAAAAGA [PowerStrip EXNG 1.19] (Eterna round: R96, puzzle: Exclusion NG 1) | 345 | 290 | 436 | – | – | –
AAGAAACAUGAGGAUCACCCAUGUGAGGAUAUGAGUAAGAAAAGAAAAGAAAGAAGAGUCAGAAGGCACAAAGG [salish99-ex1_r3_060] (puzzle: Exclusion 1) | – | – | – | 49.5 | 35.4 | 41.5
AAGAAACAUGAGGAUCACCCAUGUGAGGAUAUGAUGAGUAUUAUGUAUGUAGUAUGAAUCAGAAGGCACAAAGG [Mat - Mod Mix D40] (puzzle: Exclusion 1) | – | – | – | 224 | 95 | 158
AAGAAACAUGAGGAUCACCCAUGUGAGGAUAUGGAAAAGAAAAGAAAAGAAAGAAGAAUCAGAAGGCACAAAGG [salish99-ex1_r3_020] (puzzle: Exclusion 1) | – | – | – | 40.8 | 33.7 | 37.6
AAGAAACAUGAGGAUCACCCAUGUGAGGAUAUGUAAAGAAAAGAAAAAGAAAAGAAAAACAGAAGGCACAAAGA [JR_Exclusion1_Sub001] (puzzle: Exclusion 1) | – | – | – | 38.7 | 43.6 | 34
AAGAAACGAGGAUAUACAAUUAAGAGAGAGAAGGAAAUGAGACAUGAGGAUCACCCAUGUAGAAGGCGUAAGAA [JR_Exclu2_Sub082] (puzzle: Exclusion 2) | – | – | – | 27.6 | 31.1 | 26.5
AAGAAGAAGUAAGGAUAUGAAGAUUUGGUGAUAACAUGAGGAUCACCCAUGUGAAAACAAUAAGAUCAGAAGGUAUAAGAAGAA [AK ExNG2-2.1] (Eterna round: R96, puzzle: Exclusion NG 2) | 53.9 | 42.1 | 72.1 | – | – | –
AAGAAGAUCAAAGGAUAUGGAGCUGAAACGGCGCUAGAAGGUUGUCUAGUGUAACAUGAGGAUCACCCAUGUAGGGACCUCUAA [AK ExNG1-V2-2] (Eterna round: R96, puzzle: Exclusion NG 1) | 562 | 385 | 644 | – | – | –
AAGAGGAUUAUAGGAUAUGAAGCUAAAACGGCGUUAGAAGGGUAUACAGAGUUACAUGAGGAUCACCCAUGUUGUGAUUUCUAA [AK ExNG1-V2-4.3] (Eterna round: R96, puzzle: Exclusion NG 1) | 52.6 | 36.9 | 62.5 | – | – | –
AAGAGUGAGCGAGGAUAUUGAUUUUGGCGUAGUCAAGAAGGCGCGUACAUGAGGAUCACCCAUGUGCUCAGAGCGCAAAAGGGU [Gequon] (Eterna round: R96, puzzle: Exclusion NG 1) | 208 | 49.8 | 68.2 | – | – | –
AAGAUGCGGGUAGGAUAUGGGAAUUAAUAAAGACCAGAAGGACUGGUCACACAACAUGAGGAUCACCCAUGUGUGUGUAGUGAA [exng1 ex1] (Eterna round: R96, puzzle: Exclusion NG 1) | – | 9.2 | – | – | – | –
AAGCAGCGAGGAUAUGCUUGCGCGUGUCCUAGUUGAAAUAAACUUGAGGAUCACCCAAGUAGAAGGCGCAACCC [EX2 #42] (Eterna round: R97, puzzle: Exclusion 2) | 197 | – | 41.9 | – | – | –
